Laboratory results: paper PMC11608337 (Nature Communications, 2024)

T1: RING domain of IRF2BP2 (residues 498-578) (UniProt Q7Z5L9 498-578)
T1 sequence (looked up): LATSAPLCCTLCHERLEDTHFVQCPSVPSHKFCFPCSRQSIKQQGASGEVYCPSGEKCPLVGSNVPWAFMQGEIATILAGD


Biological target: T1, RING domain of IRF2BP2 (residues …)
Experiment: ITC

Binder | fold increase of binding affinity (KD) over the shorter peptide [fold] | Kd [µM]
RPDRETRASVIKKTSDITQ (peptide, UniProt P14316 325-343, looked up) [IRF2-L (residues 325-343)] | 3.9 | –
GPGTPTRSSVITSARELHYG (peptide, UniProt Q05516 279-298, looked up) [ZBTB16-L (residues 279-298)] | – | 7.21
RSSVITSA [RxSVI motif-containing peptide of ZBTB16 (residues 285-292, RSSVITSA)] | – | 12.6
RGSVITSA [mouse ZBTB16 peptide (residues 285-292, RGSVITSA)] | – | 16.8
RASVIKKT [IRF2 peptide (residues 331-338, RASVIKKT)] | – | 6.45
RSVLVHAG [NFAT1 peptide (residues 782-789, RSVLVHAG)] | – | 514
ERQQNRPSVITCASAG (peptide, UniProt Q14135 156-171, looked up) [VGLL4-L (residues 156-171)] | 2.1 | –
